Assay results as given in patent US20220242939A1 (BIOARCTIC, published 2022).
Non-standard residues stand in square brackets, D forms with d. No end group written: not given here. Ahx = NCCCCCC(=O)O

How the values were obtained:
[1] = molecular target: 8B3, monoclonal anti-L198 antibody; test: inhibition ELISA: antigen in solution varied, antibody 8B3 at 0.05 µg/ml, plate coated with L198-BSA peptide
Description: (§1) 0.5 μg/ml solution of N-terminal neo-epitope peptide L198 (SEQ ID NO:52) conjugated to BSA was prepared by dilution in PBS. 50 μl/well were added to an ELISA half-area 96 well microtiter plate, the plate was sealed with adhesive sealer and incubated over night at 4° C. After discarding the solution, the plates were blocked with protein-free blocking solution (Pierce) (150 μl/well) at room temperature for 90 min with shaking (900 rpm). The blocked plate was washed four times with washing buffer containing 0.28 mM NaH₂PO₄, 2.5 mM Na₂HPO₄, 150 mM NaCl, 0.1% TWEEN®-20 and 0.0075% Kathon CG.
(§2) Serial dilutions of each synthetic ApoE peptide were prepared by 4-fold dilution starting from 10000 ng/ml in 96 well storage plates (30 μl final volume). Each recombinant antibody to be tested was added (30 μl) to the serial dilutions of each of the synthetic ApoE peptides at a final concentration of 0.05 μg/ml per well. Samples were pre-incubated for 45 min at room temperature with shaking (900 rpm).
(§3) The pre-incubated samples were transferred (50 μl/well) to the blocked ELISA plates, and plates were incubated for 10 min at room temperature without shaking. […] Alkaline phosphatase substrate (50 μl/well) was added to the plate and the optical density was read every 10 min at a wavelength of 405 nm for up to 120 min. The IC50 values were determined from a log inhibitor concentration response curve (FIG. 25).

[2] = molecular target: 15F8, monoclonal anti-L198 antibody; test: inhibition ELISA: antigen in solution varied, antibody 15F8 at 0.05 µg/ml, plate coated with L198-BSA peptide
Description: as §1, §2, §3

[3] = molecular target: 28F2, recombinant IgG2c antibody; test: inhibition ELISA; antibody at 0.05 ug/ml pre-incubated with the antigen in solution (3-fold dilutions from 1000 ng/ml), then on a plate coated with G200-BSA peptide; blank reduced OD 405 nm
Description: as §2, with “[…]” for “Serial”, “peptide, recombinant C-terminal ApoE fragment G200-HIS and full-length ApoE4” for “peptide”, “1000” for “10000”, “peptides, G200-HIS or full-length ApoE4” for “peptides”
(§4) The pre-incubated samples were transferred (50 μl/well) to the blocked ELISA plates, and plates were incubated for 25 min at room temperature without shaking. Plates were washed as described above. Alkaline phosphatase conjugated anti-mouse IgG detection antibody (Mabtech, cat. no. 3310-4) was diluted 1:1000 and added to each plate (50 μl/well). The plate was sealed and incubated with shaking (900 rpm) for 45 min at room temperature and subsequently washed as described above. Alkaline phosphatase substrate (50 μl/well) was added to the plate and the optical density was read every 15 min at a wavelength of 405 nm for up to 120 min. The IC50 values were determined from a log inhibitor concentration response curve (FIG. 17).

[4] = molecular target: T1, 7B10, recombinant IgG2c antibody; test: as above
T1 construct: also called 7610
Description: as §2, with “[…]” for “Serial”, “peptide, recombinant C-terminal ApoE fragment G200-HIS and full-length ApoE4” for “peptide”, “1000” for “10000”, “peptides, G200-HIS or full-length ApoE4” for “peptides”
as §4

[5] = molecular target: 7C7, recombinant IgG2c antibody; test: as above
Description: as §2, with “[…]” for “Serial”, “peptide, recombinant C-terminal ApoE fragment G200-HIS and full-length ApoE4” for “peptide”, “1000” for “10000”, “peptides, G200-HIS or full-length ApoE4” for “peptides”
as §4

[6] = molecular target: 17G4, recombinant IgG2c antibody; test: as above
Description: as §2, with “[…]” for “Serial”, “peptide, recombinant C-terminal ApoE fragment G200-HIS and full-length ApoE4” for “peptide”, “1000” for “10000”, “peptides, G200-HIS or full-length ApoE4” for “peptides”
as §4

[7] = molecular target: 23D5, recombinant IgG2c antibody; test: as above
Description: as §2, with “[…]” for “Serial”, “peptide, recombinant C-terminal ApoE fragment G200-HIS and full-length ApoE4” for “peptide”, “1000” for “10000”, “peptides, G200-HIS or full-length ApoE4” for “peptides”
as §4

[8] = molecular target: 6F4, monoclonal anti-L198 antibody; test: inhibition ELISA: antigen in solution varied, antibody 6F4 at 0.05 µg/ml, plate coated with L198-BSA peptide
Description: as §1, §2, §3

[9] = molecular target: 12B1, monoclonal anti-L198 antibody; test: inhibition ELISA: antigen in solution varied, antibody 12B1 at 0.05 µg/ml, plate coated with L198-BSA peptide
Description: as §1, §2, §3

[10] = molecular target: 63F6, monoclonal anti-A199 antibody; test: inhibition ELISA; antibody at 0.05 ug/ml pre-incubated with the peptide in solution (4-fold dilutions from 10000 ng/ml), then on a plate coated with A199-BSA peptide; blank reduced OD 405 nm
Description: as §1, with “A199” for “L198”, “NO:51)” for “NO:52)”
as §2, with “purified monoclonal” for “recombinant”
as §4, with “10” for “25”, “10” for “15”, “29).” for “17).”

[11] = molecular target: 38G9, monoclonal anti-A199 antibody; test: as above
Description: as §1, with “A199” for “L198”, “NO:51)” for “NO:52)”
as §2, with “purified monoclonal” for “recombinant”
as §4, with “10” for “25”, “10” for “15”, “29).” for “17).”

[12] = molecular target: 36A12, monoclonal anti-A199 antibody; test: as above
Description: as §1, with “A199” for “L198”, “NO:51)” for “NO:52)”
as §2, with “purified monoclonal” for “recombinant”
as §4, with “10” for “25”, “10” for “15”, “29).” for “17).”

[13] = molecular target: 15H11, monoclonal anti-L198 antibody; test: inhibition ELISA: antigen in solution varied, antibody 15H11 at 0.05 µg/ml, plate coated with L198-BSA peptide
Description: as §1, §2, §3

[14] = molecular target: 28F2, recombinant IgG2c antibody; test: inhibition ELISA, second protocol; antibody at 0.05 ug/ml pre-incubated with the peptide in solution (4-fold dilutions from 10000 ng/ml), then on a plate coated with G200-BSA peptide; blank reduced OD 405 nm
Description: as §2, with “[…]” for “Serial”, “peptide, recombinant C-terminal ApoE fragment G200-HIS and full-length ApoE4” for “peptide”, “1000” for “10000”, “peptides, G200-HIS or full-length ApoE4” for “peptides”
as §4
(§5) In addition, a second inhibition ELISA with the ApoE peptides conjugated to BSA was run, in which the starting concentration of the antigens in solution was increased 10-fold. i.e. the starting concentration of the N-terminal neo-epitope of synthetic ApoE peptides conjugated to BSA and starting at amino acid L198 (SEQ ID NO:52), A199 (SEQ ID NO:51) or G200 (SEQ ID NO:50), or to BSA-conjugated negative control peptide (SEQ ID NO:53), was 10000 ng/ml. Furthermore, a 4-fold serial dilution of antigen was used, the plates were blocked with protein-free blocking solution (Pierce) for 90 min, the pre-incubated samples were incubated on the coated plates for 10 min (instead of 25 min), and the optical density was read every 10 min (instead of every 15 min). IC50 values were determined from a log inhibitor concentration response curve (FIG. 20).

[15] = molecular target: T1, 7B10, recombinant IgG2c antibody; test: as above
Description: as §2, with “[…]” for “Serial”, “peptide, recombinant C-terminal ApoE fragment G200-HIS and full-length ApoE4” for “peptide”, “1000” for “10000”, “peptides, G200-HIS or full-length ApoE4” for “peptides”
as §4, §5

[16] = molecular target: 7C7, recombinant IgG2c antibody; test: as above
Description: as §2, with “[…]” for “Serial”, “peptide, recombinant C-terminal ApoE fragment G200-HIS and full-length ApoE4” for “peptide”, “1000” for “10000”, “peptides, G200-HIS or full-length ApoE4” for “peptides”
as §4, §5

[17] = molecular target: 17G4, recombinant IgG2c antibody; test: as above
Description: as §2, with “[…]” for “Serial”, “peptide, recombinant C-terminal ApoE fragment G200-HIS and full-length ApoE4” for “peptide”, “1000” for “10000”, “peptides, G200-HIS or full-length ApoE4” for “peptides”
as §4, §5

[18] = molecular target: 23D5, recombinant IgG2c antibody; test: as above
Description: as §2, with “[…]” for “Serial”, “peptide, recombinant C-terminal ApoE fragment G200-HIS and full-length ApoE4” for “peptide”, “1000” for “10000”, “peptides, G200-HIS or full-length ApoE4” for “peptides”
as §4, §5

[19] = molecular target: 6F4, monoclonal anti-L198 antibody; test: inhibition ELISA; antibody at 0.05 ug/ml pre-incubated with the peptide in solution (4-fold dilutions from 10000 ng/ml), then on a plate coated with L198-BSA peptide; blank reduced OD 405 nm
Description: as §1, §2
as §4, with “10” for “25”, “10” for “15”, “25).” for “17).”

36A12, monoclonal anti-A199 antibody, sequence (VH, as listed by the source, chain 1 of 2): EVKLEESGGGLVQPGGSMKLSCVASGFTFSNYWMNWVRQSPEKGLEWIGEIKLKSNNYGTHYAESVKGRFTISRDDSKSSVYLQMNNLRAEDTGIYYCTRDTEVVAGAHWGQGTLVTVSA
36A12, monoclonal anti-A199 antibody, sequence (VL, as listed by the source, chain 2 of 2): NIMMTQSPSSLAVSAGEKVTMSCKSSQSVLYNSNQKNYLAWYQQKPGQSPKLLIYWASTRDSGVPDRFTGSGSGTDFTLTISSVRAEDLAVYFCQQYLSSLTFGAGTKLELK
17G4, recombinant IgG2c antibody, sequence (VH, as listed by the source, chain 1 of 2): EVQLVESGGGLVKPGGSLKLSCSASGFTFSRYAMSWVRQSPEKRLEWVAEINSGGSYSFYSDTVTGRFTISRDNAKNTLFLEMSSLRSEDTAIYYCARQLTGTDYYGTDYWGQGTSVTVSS
17G4, recombinant IgG2c antibody, sequence (VL, as listed by the source, chain 2 of 2): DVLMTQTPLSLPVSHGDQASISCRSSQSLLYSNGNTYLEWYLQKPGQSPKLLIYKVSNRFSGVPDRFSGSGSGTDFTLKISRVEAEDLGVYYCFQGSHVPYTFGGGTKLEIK
23D5, recombinant IgG2c antibody, sequence (VH, as listed by the source, chain 1 of 2): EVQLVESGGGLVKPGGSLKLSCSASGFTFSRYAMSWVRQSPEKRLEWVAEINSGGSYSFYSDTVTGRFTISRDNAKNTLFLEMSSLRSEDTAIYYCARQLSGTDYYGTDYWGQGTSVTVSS
28F2, recombinant IgG2c antibody, sequence (VH, as listed by the source, chain 1 of 2): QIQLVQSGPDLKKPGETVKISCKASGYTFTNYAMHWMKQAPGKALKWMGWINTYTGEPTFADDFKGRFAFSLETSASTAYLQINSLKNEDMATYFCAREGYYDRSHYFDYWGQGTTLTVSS
28F2, recombinant IgG2c antibody, sequence (VL, as listed by the source, chain 2 of 2): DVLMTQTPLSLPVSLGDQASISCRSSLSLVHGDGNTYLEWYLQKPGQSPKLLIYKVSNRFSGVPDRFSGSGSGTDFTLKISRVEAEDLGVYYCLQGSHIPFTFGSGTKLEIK
6F4, monoclonal anti-L198 antibody, sequence (VH, as listed by the source, chain 1 of 2): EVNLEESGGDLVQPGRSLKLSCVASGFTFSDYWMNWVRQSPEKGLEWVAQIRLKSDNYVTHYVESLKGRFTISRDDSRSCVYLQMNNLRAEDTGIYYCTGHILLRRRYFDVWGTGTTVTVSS
6F4, monoclonal anti-L198 antibody, sequence (VL, as listed by the source, chain 2 of 2): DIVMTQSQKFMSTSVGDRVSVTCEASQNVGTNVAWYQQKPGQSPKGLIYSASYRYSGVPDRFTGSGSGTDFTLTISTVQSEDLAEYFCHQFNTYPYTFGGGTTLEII
38G9, monoclonal anti-A199 antibody, sequence (VH, as listed by the source, chain 1 of 2): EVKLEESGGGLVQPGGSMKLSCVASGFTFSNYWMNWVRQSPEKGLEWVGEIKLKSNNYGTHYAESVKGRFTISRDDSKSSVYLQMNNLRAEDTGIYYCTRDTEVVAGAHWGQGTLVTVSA
38G9, monoclonal anti-A199 antibody, sequence (VL, as listed by the source, chain 2 of 2): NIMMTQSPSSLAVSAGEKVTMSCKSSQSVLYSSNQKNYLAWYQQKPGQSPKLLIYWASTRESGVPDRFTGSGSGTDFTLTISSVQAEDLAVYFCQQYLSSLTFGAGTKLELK
7C7, recombinant IgG2c antibody, sequence (VH, as listed by the source, chain 1 of 2): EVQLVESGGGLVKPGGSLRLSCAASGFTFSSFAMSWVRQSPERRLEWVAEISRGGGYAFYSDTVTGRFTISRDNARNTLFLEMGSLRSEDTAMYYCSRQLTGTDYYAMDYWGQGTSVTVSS
7C7, recombinant IgG2c antibody, sequence (VL, as listed by the source, chain 2 of 2): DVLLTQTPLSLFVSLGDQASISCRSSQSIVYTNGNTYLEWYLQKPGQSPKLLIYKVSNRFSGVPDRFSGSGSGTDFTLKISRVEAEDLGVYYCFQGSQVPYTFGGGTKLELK
T1 sequence (VH, as listed by the source, chain 1 of 2): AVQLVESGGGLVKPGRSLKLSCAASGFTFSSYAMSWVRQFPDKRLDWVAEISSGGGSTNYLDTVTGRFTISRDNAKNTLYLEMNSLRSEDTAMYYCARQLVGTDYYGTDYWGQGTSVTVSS
T1 sequence (VL, as listed by the source, chain 2 of 2): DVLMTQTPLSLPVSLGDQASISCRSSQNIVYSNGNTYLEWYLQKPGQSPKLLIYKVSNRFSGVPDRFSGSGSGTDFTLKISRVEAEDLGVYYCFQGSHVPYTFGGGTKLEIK
8B3, monoclonal anti-L198 antibody, sequence (VH, as listed by the source, chain 1 of 2): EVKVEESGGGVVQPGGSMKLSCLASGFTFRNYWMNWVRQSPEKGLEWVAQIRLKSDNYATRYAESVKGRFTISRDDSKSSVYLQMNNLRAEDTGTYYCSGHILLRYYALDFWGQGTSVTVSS
8B3, monoclonal anti-L198 antibody, sequence (VL, as listed by the source, chain 2 of 2): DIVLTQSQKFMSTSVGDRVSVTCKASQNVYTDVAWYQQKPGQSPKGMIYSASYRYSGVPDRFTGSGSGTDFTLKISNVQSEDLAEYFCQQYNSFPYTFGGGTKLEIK
63F6, monoclonal anti-A199 antibody, sequence (VH, as listed by the source, chain 1 of 2): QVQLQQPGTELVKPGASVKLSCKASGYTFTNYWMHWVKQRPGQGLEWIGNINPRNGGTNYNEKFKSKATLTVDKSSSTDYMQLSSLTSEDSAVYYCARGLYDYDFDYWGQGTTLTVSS
63F6, monoclonal anti-A199 antibody, sequence (VL, as listed by the source, chain 2 of 2): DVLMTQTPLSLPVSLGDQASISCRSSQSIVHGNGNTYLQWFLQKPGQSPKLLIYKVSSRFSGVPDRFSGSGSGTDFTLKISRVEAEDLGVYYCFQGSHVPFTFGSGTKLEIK
15F8, monoclonal anti-L198 antibody, sequence (VH, as listed by the source, chain 1 of 2): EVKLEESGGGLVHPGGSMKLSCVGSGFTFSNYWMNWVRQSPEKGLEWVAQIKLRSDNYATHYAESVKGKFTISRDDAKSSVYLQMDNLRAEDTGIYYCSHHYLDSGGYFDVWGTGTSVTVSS
15F8, monoclonal anti-L198 antibody, sequence (VL, as listed by the source, chain 2 of 2): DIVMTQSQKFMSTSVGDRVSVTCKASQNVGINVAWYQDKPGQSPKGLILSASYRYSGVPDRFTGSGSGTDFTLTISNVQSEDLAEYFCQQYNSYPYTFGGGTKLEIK
12B1, monoclonal anti-L198 antibody, sequence (VH, as listed by the source, chain 1 of 2): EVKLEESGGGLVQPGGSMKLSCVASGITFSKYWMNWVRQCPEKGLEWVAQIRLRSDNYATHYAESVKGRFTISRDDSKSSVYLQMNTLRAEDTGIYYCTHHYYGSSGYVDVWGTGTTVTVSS
12B1, monoclonal anti-L198 antibody, sequence (VL, as listed by the source, chain 2 of 2): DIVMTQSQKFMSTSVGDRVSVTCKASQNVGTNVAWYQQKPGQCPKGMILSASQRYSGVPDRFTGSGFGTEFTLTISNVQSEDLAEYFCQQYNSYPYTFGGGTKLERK
15H11, monoclonal anti-L198 antibody, sequence (VH, as listed by the source, chain 1 of 2): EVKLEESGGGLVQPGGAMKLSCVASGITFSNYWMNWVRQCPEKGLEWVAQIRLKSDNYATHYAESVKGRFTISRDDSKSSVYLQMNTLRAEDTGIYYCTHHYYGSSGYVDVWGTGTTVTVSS
15H11, monoclonal anti-L198 antibody, sequence (VL, as listed by the source, chain 2 of 2): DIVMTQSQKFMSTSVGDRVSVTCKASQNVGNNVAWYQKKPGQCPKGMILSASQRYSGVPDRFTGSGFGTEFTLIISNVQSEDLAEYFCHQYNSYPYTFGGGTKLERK

IC50 [1]	IC50 [2]	binding result [3]	binding result [4]	binding result [5]	binding result [6]	binding result [7]	IC50 [8]	IC50 [9]	binding result [10]	binding result [11]	binding result [12]	IC50 [13]	binding result [14]	binding result [15]	binding result [16]	binding result [17]	binding result [18]	binding result [19]	Binder
3.1 ng/mL	6.5 ng/mL	no binding (tested: 1000 ng/ml)	no binding (tested: 1000 ng/ml)	no binding (tested: 1000 ng/ml)	no binding (tested: 1000 ng/ml)	no binding (tested: 1000 ng/ml)	8.2 ng/mL	4.8 ng/mL	no binding (tested: 10000 ng/ml)	no binding (tested: 10000 ng/ml)	no binding (tested: 10000 ng/ml)	4.5 ng/mL							LAGQPL[Ahx]C (not fully specified (residue 8); printed as LAGQPL-Acp-C; also: C-terminal Cys conjugated to BSA carrier, BSA carrier; also called L198-BSA peptide) [L198 N-terminal neo-epitope peptide LAGQPL-Acp-C (SEQ ID NO:52) conjugated to BSA]
										no binding (tested: 10000 ng/ml)	no binding (tested: 10000 ng/ml)		no binding (tested: 10000 ng/ml)	no binding (tested: 10000 ng/ml)	no binding (tested: 10000 ng/ml)	no binding (tested: 10000 ng/ml)	no binding (tested: 10000 ng/ml)	no binding (tested: 10000 ng/ml)	AATVGSLAGQPLQER[Ahx]C (not fully specified (residue 17); printed as AATVGSLAGQPLQER-Acp-C; also: C-terminal Cys conjugated to BSA carrier, BSA carrier; also called 192-206 BSA-conjugated peptide) [negative control peptide AATVGSLAGQPLQER-Acp-C (SEQ ID NO:53) conjugated to BSA]
